Data as given in US20220002743.
Positions count from the first letter of the chain named. Names and notes keep the numbering of the source.

B1: wild type protein kinase Nitab4.5_0003679 g0060.2 (SEQ ID No. 3) (protein)
chain: MAIEDNESCGSRVVDSATTSGRHQRKKLEVYNEVLRRLKESNNVEALEPGFDDELWAHFNRLPTRYAIDVNVERAEDVLTHKRLLHLAHVPANRPAFDVRLVQVASVPDGNLRDSFHSSFAKKEVSRSVHPPPAFGSSPNLEALACEAIKSEVQDEDTAAPCANFSRPMHEITFSTDDKPKLLSQLTSLLAELGLNIQEAHAFSTVDGYSLDVFVVDGWPYEEVVRLRTALEREILRNEKSWPSPSQSFIKQEQDLIKREFDHLTIPFDGIDVWEIDHQLLKFEYKIASGSYGDLYKGTYCSQDVAIKILKSERLNTELQTEFAQEVYIMRKVRHKNVVQFIGACTRPPNLCIVTEYMSGGSVYDYLHKRKGSFKLPTLLKVAIDVAKGMNYLHQNNIIHRDLKAANLLMDENEVIKVADFGVARVKAQTGVMTAETGTYRWMAPEVIEHKPYDHKADVFSFGVVLWELLTGKLPYEYLTPLQAAIGVVQKGLRPTIPKHTPPRLAELLETCWQQDPTSRPDFSEIVDILQQIAKEVGDERADRCKEKSAGGFFSALRRGHH
B2: K308M variant of protein kinase Nitab4.5_0003679 g0060.2 (SEQ ID No. 3) (protein)
chain: B1 chain with K308M

Biological target: myelin basic protein
Sequence (P02687 whole entry): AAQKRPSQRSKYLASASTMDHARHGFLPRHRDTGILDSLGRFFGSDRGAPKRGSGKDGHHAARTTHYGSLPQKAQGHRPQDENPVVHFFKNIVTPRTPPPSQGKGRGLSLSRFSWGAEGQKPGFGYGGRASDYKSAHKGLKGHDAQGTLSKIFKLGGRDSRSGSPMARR

Row | Protein | in vitro kinase reaction; phosphorylation detected by Pro-Q Diamond phosphoprotein gel stain after SDS-PAGE
1 | B1 | K308 (i.e. the wild type SEQ ID No. 3) is an active protein kinase
2 | B2 | the variant K308M is not an active kinase
